Measured values reported in PMC6576158.

Molecular target: mouse Nicastrin I241C mutant (mouse) (UniProt P57716)
Test: cross-linking

Sequence of UniProt P57716 (P57716 28-708 I241C): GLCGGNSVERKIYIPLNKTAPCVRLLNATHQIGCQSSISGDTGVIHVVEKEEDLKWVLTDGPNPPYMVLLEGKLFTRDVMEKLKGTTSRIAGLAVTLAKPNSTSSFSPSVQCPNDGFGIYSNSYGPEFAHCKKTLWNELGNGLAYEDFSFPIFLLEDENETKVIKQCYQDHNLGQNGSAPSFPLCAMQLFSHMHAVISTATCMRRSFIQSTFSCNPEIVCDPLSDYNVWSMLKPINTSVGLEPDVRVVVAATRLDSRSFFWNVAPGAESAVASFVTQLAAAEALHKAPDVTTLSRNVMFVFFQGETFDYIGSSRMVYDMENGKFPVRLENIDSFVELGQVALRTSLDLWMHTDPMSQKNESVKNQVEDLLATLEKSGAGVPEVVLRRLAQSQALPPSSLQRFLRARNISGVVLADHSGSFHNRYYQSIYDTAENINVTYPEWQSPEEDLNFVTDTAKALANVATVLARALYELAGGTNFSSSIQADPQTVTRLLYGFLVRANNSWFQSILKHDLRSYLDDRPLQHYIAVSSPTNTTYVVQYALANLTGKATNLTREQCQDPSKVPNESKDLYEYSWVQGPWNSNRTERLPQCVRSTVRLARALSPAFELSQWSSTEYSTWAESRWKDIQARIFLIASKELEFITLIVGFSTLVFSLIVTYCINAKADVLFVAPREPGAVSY

- percent of the substrate cross-linked to NCT (disulfide bond): 15.4%
Substance: APPC99‐3xFLAG‐K28C (domain or fragment)
